The stoichiometry N is the number of molecules, sites or subunits per partner or assembly.

Data set [1] concerns the molecule itself. Kind of data set: SEC; gel filtration of purified kin401T99N:mGFP before concentration. (SEC sorts molecules by how far they enter the pores of the column.)
Data set [2] deals with the molecule itself. Kind of data set: stepwise photobleaching (TIR microscopy); dilute solution (1 pM) of kin401T99N:mGFP added to imaging chambers with HiLyte 647-labelled microtubules bound to the glass, no ATP, oxygen scavenging agent.

B1: GFP-labelled Drosophila kinesin-1 (aa 1-401) rigor mutant, Kin401T99N:mGFP (domain or fragment)
chain: not shown
notes: The construct without the mutation was a gift from T Surrey; also called rigor kinesin; GFP-labelled rigor kinesin; source: bacteria (BL21(DE3) strain), dimeric fraction purified using gel filtration; not shown: monomeric GFP, C-terminal, kept
Regarding B1, the “stoichiometry N” value is 2 in data set [1] and no more than 2 in data set [2].

(Values after PMC3985186, “The influence of dynein processivity control, MAPs, and microtubule ends on directional movement of a localising mRNA” (eLife, 2014).)
